For experiment [1], the target named is SUN domain of human SUN1 (amino acid residues 616–812), tags removed (human). Briefly: SEC-MALS; co-expressed and co-purified samples at >1 mg/ml on Superdex 200 Increase 10/300 GL in 20 mM Tris pH 8.0, 150 mM KCl, 2 mM DTT.
Experiment [2] shares this target. Briefly: SEC-MALS; SUN1-KASH4 after removal of bound zinc by treatment with EDTA. (In general: In gel filtration, larger molecules generally elute earlier.)
Experiment [3] deals with SUN1 I673E (SUN domain of human SUN1, residues 616–812, I673E), GCN4 tag removed (human). The experiment in a line: SEC-MALS; co-expressed and co-purified samples at >1 mg/ml on Superdex 200 Increase 10/300 GL in 20 mM Tris pH 8.0, 150 mM KCl, 2 mM DTT.

As for GPSPPPTWPHLQLCYLQPPPV (domain or fragment) [KASH domain of human KASH5 (amino acid residues 542–562), tags removed], the stoichiometry N (binder:target ratio (6:6)) in experiment [1] worked out at 1.
Take ASGGPCCSHARIPRTPYLVLSYVNGLPPV (domain or fragment) [KASH domain of human Nesprin-4 (KASH4, amino acid residues 376–404), tags removed]: the stoichiometry N (binder:target ratio (6:6)) in experiment [2], in experiment [3] and in experiment [1] was 1 throughout. Also, in experiment [2], the stoichiometry N (binder:target ratio (12:12)) was 1.

(Values after article PMC7800377.)
